± gives the uncertainty stated by the source.
Experiment: self-splicing fitness, log relative to wild type (ln ratio); higher = more splicing; Tetrahymena group I intron in knt gene, E. coli kanamycin selection, DiMSum; sequences stand for … in CUCUCU…GGAGGGAAAAGUUAUCAGGCAUGCACCUGGUAGCUAGUCUUUAAACCAAUAGAUUGCAUCGGUUUAAAAGGCAAGACCGUCAAAUUGCGGGAAAGGGGUCAACAGCCGUUCAGUACCAAGUCUCAGGGGAAACUUUGAGAUGGCCUUGCAAAGGGUAUGGUAAUAAGCUGACGGACAUGGUCCUAACCACGCAGCCAAGUCCUAAGUCAACAGAUCUUCUGUUGAUAUGGAUGCAGUUCACAGACUAAAUGUCGGUCGGGGAAGAUGUAUUCUUCUCAUAAGAUAUAGUCGGACCUCUCCUUAAUGGGAGCUAGCGGAUGAAGUGAUGCAACACUGGAGCCGCUGGGAACUAAUUUGUAUGCGAAAGUAUAUUGAUUAGUUUUGGAGUACUCGUGGUCG
Summary of the method: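 A randomised library covering all eight P1ex-region intron nucleotides was built with the intron in the knt kanamycin-resistance gene on pET-22b(+) and held in E. coli BL21(DE3). Cells were grown overnight at 37°C or 30°C on LB agar, with or without 25 μg/mL kanamycin, plus 100 μg/mL carbenicillin, 50 μM IPTG and 0.2% rhamnose, and pooled colonies were amplicon-sequenced on an Illumina HiSeq 2500. DiMSum fitness is the error-weighted combination of wild-type-normalised replicate fold changes, kanamycin versus none.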

GGCAAGCAAUAUUACGUUCU
self-splicing fitness (ln) (30 °C): -0.68 ± 0.089 | self-splicing fitness (ln) (37 °C): 0.436 ± 0.11

UGCAAGCAAUAUUACGGCGC
self-splicing fitness (ln) (30 °C): -3.27 ± 0.18 | self-splicing fitness (ln) (37 °C): -2.84 ± 0.31

GAAAAGCAAUAUUACGUAUU
self-splicing fitness (ln) (30 °C): -3.24 ± 0.13 | self-splicing fitness (ln) (37 °C): -2.16 ± 0.11

CUGCAGCAAUAUUACGCGAA
self-splicing fitness (ln) (30 °C): -3.31 ± 0.33 | self-splicing fitness (ln) (37 °C): -2.52 ± 0.27

GCAUAGCAAUAUUACGUGUC
self-splicing fitness (ln) (30 °C): -3.89 ± 0.2 | self-splicing fitness (ln) (37 °C): -1.96 ± 0.2

GUACAGCAAUAUUACGUUAU
self-splicing fitness (ln) (30 °C): -4.01 ± 0.25 | self-splicing fitness (ln) (37 °C): -1.87 ± 0.14

AUAUAGCAAUAUUACGAAAU
self-splicing fitness (ln) (30 °C): -1.01 ± 0.21 | self-splicing fitness (ln) (37 °C): -1.72 ± 0.28

CGAUAGCAAUAUUACGACCU
self-splicing fitness (ln) (30 °C): -1.35 ± 0.12 | self-splicing fitness (ln) (37 °C): 0.288 ± 0.14

GGUAAGCAAUAUUACGUACA
self-splicing fitness (ln) (30 °C): -0.648 ± 0.1 | self-splicing fitness (ln) (37 °C): 0.294 ± 0.14

ACGAAGCAAUAUUACGCUCG
self-splicing fitness (ln) (30 °C): -1.53 ± 0.14 | self-splicing fitness (ln) (37 °C): -1.17 ± 0.17

CUGUAGCAAUAUUACGCCAC
self-splicing fitness (ln) (30 °C): -2.54 ± 0.25 | self-splicing fitness (ln) (37 °C): -2.09 ± 0.47

CGUAAGCAAUAUUACGUCUC
self-splicing fitness (ln) (30 °C): -3.77 ± 0.28 | self-splicing fitness (ln) (37 °C): -1.95 ± 0.17

UUACAGCAAUAUUACGUGUA
self-splicing fitness (ln) (30 °C): -2.48 ± 0.084 | self-splicing fitness (ln) (37 °C): -1.48 ± 0.081

UUUAAGCAAUAUUACGCCUG
self-splicing fitness (ln) (30 °C): -0.642 ± 0.14 | self-splicing fitness (ln) (37 °C): -0.13 ± 0.14

UUACAGCAAUAUUACGGAAG
self-splicing fitness (ln) (30 °C): -3 ± 0.13 | self-splicing fitness (ln) (37 °C): -2.05 ± 0.14

GGAUAGCAAUAUUACGGUCC
self-splicing fitness (ln) (37 °C): -2.68 ± 0.48

GGCGAGCAAUAUUACGCAAA
self-splicing fitness (ln) (30 °C): -2.13 ± 0.19 | self-splicing fitness (ln) (37 °C): -2.01 ± 0.14

UCACAGCAAUAUUACGAACG
self-splicing fitness (ln) (30 °C): -1.61 ± 0.18 | self-splicing fitness (ln) (37 °C): -1.19 ± 0.21

UAAGAGCAAUAUUACGGGGC
self-splicing fitness (ln) (30 °C): -4 ± 0.42 | self-splicing fitness (ln) (37 °C): -2.83 ± 0.32

AGAUAGCAAUAUUACGUAAG
self-splicing fitness (ln) (30 °C): -1.31 ± 0.065 | self-splicing fitness (ln) (37 °C): -1.44 ± 0.088

CAUGAGCAAUAUUACGUCAG
self-splicing fitness (ln) (30 °C): -1.35 ± 0.095 | self-splicing fitness (ln) (37 °C): -1.13 ± 0.12

GCAGAGCAAUAUUACGCACC
self-splicing fitness (ln) (30 °C): -2.11 ± 0.45 | self-splicing fitness (ln) (37 °C): -1.17 ± 0.48

AAAAAGCAAUAUUACGAGCU
self-splicing fitness (ln) (30 °C): -0.615 ± 0.092 | self-splicing fitness (ln) (37 °C): -0.172 ± 0.13

UUCCAGCAAUAUUACGGCUC
self-splicing fitness (ln) (30 °C): -2.48 ± 0.21 | self-splicing fitness (ln) (37 °C): -0.924 ± 0.21

AAUGAGCAAUAUUACGGGCU
self-splicing fitness (ln) (30 °C): -2.51 ± 0.18 | self-splicing fitness (ln) (37 °C): -2.21 ± 0.46

GUCCAGCAAUAUUACGUCCG
self-splicing fitness (ln) (30 °C): -4.42 ± 0.29 | self-splicing fitness (ln) (37 °C): -0.283 ± 0.22

CGGAAGCAAUAUUACGCGCA
self-splicing fitness (ln) (30 °C): -1.9 ± 0.11 | self-splicing fitness (ln) (37 °C): -1.08 ± 0.094

AAAUAGCAAUAUUACGGAGC
self-splicing fitness (ln) (30 °C): -3.73 ± 0.3 | self-splicing fitness (ln) (37 °C): -2.26 ± 0.17

UCCCAGCAAUAUUACGACAG
self-splicing fitness (ln) (37 °C): -3.55 ± 0.37

UAUAAGCAAUAUUACGAGUG
self-splicing fitness (ln) (30 °C): 0.0329 ± 0.08 | self-splicing fitness (ln) (37 °C): -0.16 ± 0.099

GCACAGCAAUAUUACGCGAG
self-splicing fitness (ln) (30 °C): -2.41 ± 0.092 | self-splicing fitness (ln) (37 °C): -0.669 ± 0.084

CAUGAGCAAUAUUACGCGAC
self-splicing fitness (ln) (37 °C): -2.84 ± 0.44

CCAGAGCAAUAUUACGCUCA
self-splicing fitness (ln) (30 °C): -3.24 ± 0.38 | self-splicing fitness (ln) (37 °C): -1.42 ± 0.37

UAGCAGCAAUAUUACGUGCG
self-splicing fitness (ln) (30 °C): -0.801 ± 0.076 | self-splicing fitness (ln) (37 °C): 0.26 ± 0.081

GUAUAGCAAUAUUACGUUCA
self-splicing fitness (ln) (30 °C): -1.06 ± 0.2 | self-splicing fitness (ln) (37 °C): -0.424 ± 0.23

CUUGAGCAAUAUUACGCUUG
self-splicing fitness (ln) (37 °C): -1.83 ± 0.41

CACGAGCAAUAUUACGGAUU
self-splicing fitness (ln) (30 °C): -3.86 ± 0.3 | self-splicing fitness (ln) (37 °C): -2.47 ± 0.26

AGUCAGCAAUAUUACGGAUG
self-splicing fitness (ln) (30 °C): -1.36 ± 0.054 | self-splicing fitness (ln) (37 °C): 0.106 ± 0.069

GUAGAGCAAUAUUACGUCGC
self-splicing fitness (ln) (30 °C): -0.635 ± 0.15 | self-splicing fitness (ln) (37 °C): -0.21 ± 0.18

UGCCAGCAAUAUUACGGCAA
self-splicing fitness (ln) (30 °C): -1.4 ± 0.079 | self-splicing fitness (ln) (37 °C): -1.52 ± 0.085

UAAGAGCAAUAUUACGUAGA
self-splicing fitness (ln) (30 °C): -3.89 ± 0.23 | self-splicing fitness (ln) (37 °C): -1.34 ± 0.28

AGUAAGCAAUAUUACGUCAU
self-splicing fitness (ln) (30 °C): -2.97 ± 0.23 | self-splicing fitness (ln) (37 °C): -2.12 ± 0.19

AAUAAGCAAUAUUACGAGUA
self-splicing fitness (ln) (30 °C): -1.67 ± 0.19 | self-splicing fitness (ln) (37 °C): -0.925 ± 0.16

UCUAAGCAAUAUUACGAGCG
self-splicing fitness (ln) (30 °C): -1.19 ± 0.1 | self-splicing fitness (ln) (37 °C): -0.708 ± 0.12

GCGAAGCAAUAUUACGGAGU
self-splicing fitness (ln) (30 °C): -3.66 ± 0.2 | self-splicing fitness (ln) (37 °C): -3.43 ± 0.42

UUCAAGCAAUAUUACGAGUG
self-splicing fitness (ln) (30 °C): -0.827 ± 0.06 | self-splicing fitness (ln) (37 °C): -0.257 ± 0.077

GAACAGCAAUAUUACGUUCA
self-splicing fitness (ln) (30 °C): -2.31 ± 0.1 | self-splicing fitness (ln) (37 °C): -1.49 ± 0.087

CCGAAGCAAUAUUACGUGCG
self-splicing fitness (ln) (30 °C): -1.04 ± 0.085 | self-splicing fitness (ln) (37 °C): -0.542 ± 0.096

GAUCAGCAAUAUUACGCCCU
self-splicing fitness (ln) (30 °C): -0.299 ± 0.069 | self-splicing fitness (ln) (37 °C): 0.418 ± 0.084

Source: the supplement of paper PMC7877785
